According to CN117736324A (BEIJING DONGFANG BIOTECH CO LTD; BEIJING JINGYI TAIXIANG …, dated 2024):

T1: 人Siglec-15抗原 (Siglec-15蛋白胞外段) (human, UniProt Q6ZMC9 20-263)
T1 construct: extracellular domain
T1 sequence (looked up): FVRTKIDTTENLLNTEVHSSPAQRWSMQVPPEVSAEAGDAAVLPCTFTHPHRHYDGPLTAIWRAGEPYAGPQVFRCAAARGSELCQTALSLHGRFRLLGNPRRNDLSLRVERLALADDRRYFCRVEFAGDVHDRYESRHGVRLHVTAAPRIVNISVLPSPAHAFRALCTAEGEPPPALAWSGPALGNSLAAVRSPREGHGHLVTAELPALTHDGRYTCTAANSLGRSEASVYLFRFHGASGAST


What was measured:
[1] = target: T1, 人Siglec-15抗原 (Siglec-15蛋白胞外段); assay: ELISA, Siglec-15 coated, Goat Anti-Mouse IgG-HRP detection
[2] = target: T1, 人Siglec-15抗原 (Siglec-15蛋白胞外段); assay: phage supernatant ELISA, screening of single clones
[3] = target: T1, 人Siglec-15抗原 (Siglec-15蛋白胞外段); assay: ELISA, Siglec-15 coated, Goat Anti Human IgG-HRP detection

Binder | binding result [1] | binding result [2] | also measured
MA-IV 鼠源抗Siglec-15单克隆抗体 (mouse IgG1/Ck) (antibody, V domains shown, also called 鼠源抗体分子) VH: EVKLQESGAELVKPGASVKLSCIASGFNIKDTFIHWVKQRPEQGLEWIGRIDPASGYTKYDPKFQGKATITTDTSSNTAYLQLSSLTSEDTAVYYCTRSGSYVSFVYWGQGTLVTVSA VL: DIVMTQTPASLAVSLGQRATISCKASQSVDYDGDSYMNWYQQKPGQPPKLLIYAASNLESGIPARFSGSGSGTDFTLNIHPVEEEDAATYYCQQSNEDPWTFGGGTKLEIKA | binds | – | –
MA-IV 噬菌体单克隆抗体 (phage-displayed scFv) (scFv, V domains shown, also called 抗Siglec-15噬菌体单克隆抗体) VH: EVKLQESGAELVKPGASVKLSCIASGFNIKDTFIHWVKQRPEQGLEWIGRIDPASGYTKYDPKFQGKATITTDTSSNTAYLQLSSLTSEDTAVYYCTRSGSYVSFVYWGQGTLVTVSA VL: DIVMTQTPASLAVSLGQRATISCKASQSVDYDGDSYMNWYQQKPGQPPKLLIYAASNLESGIPARFSGSGSGTDFTLNIHPVEEEDAATYYCQQSNEDPWTFGGGTKLEIK | – | binds | –
MA-II 鼠源抗Siglec-15单克隆抗体 (mouse IgG1/Ck) (antibody, V domains shown, also called 鼠源抗体分子) VH: EVKLEQSGGGLVKPGGSLKLSCAASGFTFSSYAMSWVRQSPEKRLEWVAEIISGGSHTYYPDTVTGRFTISRDDAKNTLYLEMSSLRSEDTAMYYCARDGNYGYAMDYWGQGTSVTVSS VL: DIVITQTPAIMSASPGEKVTMTCRASSSVSSSYLHWYQQKSGASPKLWIYSTSNLASGVPARFSGGGSGTSYSLTISSVEAEDDATYYCQQWSGYPWTFGGGTKLEIKA | binds | – | –
MA-II 噬菌体单克隆抗体 (phage-displayed scFv) (scFv, V domains shown, also called 抗Siglec-15噬菌体单克隆抗体) VH: EVKLEQSGGGLVKPGGSLKLSCAASGFTFSSYAMSWVRQSPEKRLEWVAEIISGGSHTYYPDTVTGRFTISRDDAKNTLYLEMSSLRSEDTAMYYCARDGNYGYAMDYWGQGTSVTVSS VL: DIVITQTPAIMSASPGEKVTMTCRASSSVSSSYLHWYQQKSGASPKLWIYSTSNLASGVPARFSGGGSGTSYSLTISSVEAEDDATYYCQQWSGYPWTFGGGTKLEIK | – | binds | –
MA-I 鼠源抗Siglec-15单克隆抗体 (mouse IgG1/Ck) (antibody, also called MA-1; 鼠源抗体分子) heavy: EVKLEQSGPELVKPGASVKISCKASGYTFTDYNMFWVKQSHGKTLEWIGYIYPDNGGTGYNQNFKSKATLTVDNSSSSAYMELRSLTSEDSAVYYCARSEYDYFDYWGQGTTLTVSSAKTTPPSVYPLAPGSAAQTNSMVTLGCLVKGYFPEPVTVTWNSGSLSSGVHTFPAVLQSDLYTLSSSVTVPSSTWPSETVTCNVAHPASSTKVDKKIVPRDCGCKPCICTVPEVSSVFIFPPKPKDVLTITLTPKVTCVVVDISKDDPEVQFSWFVDDVEVHTAQTQPREEQFNSTFRSVSELPIMHQDWLNGKEFKCRVNSAAFPAPIEKTISKTKGRPKAPQVYTIPPPKEQMAKDKVSLTCMITDFFPEDITVEWQWNGQPAENYKNTQPIMDTDGSYFVYSKLNVQKSNWEAGNTFTCSVLHEGLHNHHTEKSLSHSPG light: DIVLTQSTSSLSASLGDRVTISCRASQDISNYLNWYQQKPDGTVKLLIYYTSRLHSGVPSRFSGSGSGTDYSLTISNLEQEDIATYFCQQGNTLPLTFGAGTKLELKADAAPTVSIFPPSSEQLTSGGASVVCFLNNFYPKDINVKWKIDGSERQNGVLNSWTDQDSKDSTYSMSSTLTLTKDEYERHNSYTCEATHKTSTSPIVKSFNRNEC | binds | – | –
嵌合抗体CA-I (antibody, human IgG1, kappa, L234A L235A) heavy: not shown light: DIVLTQSTSSLSASLGDRVTISCRASQDISNYLNWYQQKPDGTVKLLIYYTSRLHSGVPSRFSGSGSGTDYSLTISNLEQEDIATYFCQQGNTLPLTFGAGTKLELKRTVAAPSVFIFPPSDEQLKSGTASVVCLLNNFYPREAKVQWKVDNALQSGNSQESVTEQDSKDSTYSLSSTLTLSKADYEKHKVYACEVTHQGLSSPVTKSFNRGEC | – | – | binding result [3]: binds
MA-III 鼠源抗Siglec-15单克隆抗体 (mouse IgG1/Ck) (antibody, V domains shown, also called 鼠源抗体分子) VH: QVKLEESGPELVKPGASVKMSCKASGYIFTSYVMHWVRQKPGQGLEWIGYIDPYNDRTKYNEKFKGKATLTSDKSSSTAYMELSSLTSEDSAVYYCARSGDYGSSFDYWGQGTTLTVSS VL: DIVMTQSPSSLSASLGERVSLTCRASQEISGYLSWLQQKPDGTIKRLIYAASTLDSGVPKRFSGSRSGSDYSLTISSLESEDFADYYCLQYASYPYTFGGGTKLEIKA | binds | – | –
MA-III 噬菌体单克隆抗体 (phage-displayed scFv) (scFv, V domains shown, also called 抗Siglec-15噬菌体单克隆抗体) VH: QVKLEESGPELVKPGASVKMSCKASGYIFTSYVMHWVRQKPGQGLEWIGYIDPYNDRTKYNEKFKGKATLTSDKSSSTAYMELSSLTSEDSAVYYCARSGDYGSSFDYWGQGTTLTVSS VL: DIVMTQSPSSLSASLGERVSLTCRASQEISGYLSWLQQKPDGTIKRLIYAASTLDSGVPKRFSGSRSGSDYSLTISSLESEDFADYYCLQYASYPYTFGGGTKLEIK | – | binds | –
人源化抗体分子HA-II (human IgG1/Ck) (antibody, V domains shown, also called HA-Ⅱ) VH: QVQLVQSGAEVKKPGASVKVSCKASGYTFTDYNMFWVRQAPGQRLEWIGYIYPDNGGTGYNQNFKSKATLTVDNSASTAYMELSSLRSEDTAVYYCARSEYDYFDYWGQGTLVTVSS VL: DIQLTQSPSSLSASVGDRVTITCRASQDISNYLNWYQQKPGKAPKLLIYYTSRLHSGVPSRFSGSGSGTDYTFTISSLQPEDIATYFCQQGNTLPLTFGQGTKVELKR | – | – | binding result [3]: binds
MA-I 噬菌体单克隆抗体 (phage-displayed scFv) (scFv, V domains shown, also called 抗Siglec-15噬菌体单克隆抗体) VH: EVKLEQSGPELVKPGASVKISCKASGYTFTDYNMFWVKQSHGKTLEWIGYIYPDNGGTGYNQNFKSKATLTVDNSSSSAYMELRSLTSEDSAVYYCARSEYDYFDYWGQGTTLTVSS VL: DIVLTQSTSSLSASLGDRVTISCRASQDISNYLNWYQQKPDGTVKLLIYYTSRLHSGVPSRFSGSGSGTDYSLTISNLEQEDIATYFCQQGNTLPLTFGAGTKLELK | – | binds | –
